Test results from patent US9618524B2, “Method, composition, isolation and identification of a plaque particle and related biomarker” (Plaxgen Inc., priority 2012, dated 2017).

B1: Thyroxine-binding globulin (protein)
chain: ASPEGKVTACHSSQPNATLYKMSSINADFAFNLYRRFTVETPDKNIFFSPVSISAALVMLSFGACCSTQTEIVETLGFNLTDTPMVEIQHGFQHLICSLNFPKKELELQIGNALFIGKHLKPLAKFLNDVKTLYETEVFSTDFSNISAAKQEINSHVEMQTKGKVVGLIQDLKPNTIMVLVNYIHFKAQWANPFDPSKTEDSSSFLIDKTTTVQVPMMHQMEQYYHLVDMELNCTVLQMDYSKNALALFVLPKEGQMESVEAAMSSKTLKKWNRLLQKGWVDLFVPKFSISATYDLGATLLKMGIQHAYSENADFSGLTEDNGLKLSNAAHKAVLHIGEKGTEAAAVPEVELSDQPENTFLHPIIQIDRSFMLLILERSTRSILFLGKVVNPTEA
B2: Ig lambda chain V-III region (protein)
chain: SELTQDPAVSVALGQTVRITCQGDSLRSYYASWYQQKPGQAPVLVIYGKNNRPSGIPDRFSGSSSGNTASLTITGAQAEDEADYYCNSRDSS
B3: Ig gamma-3 chain C region (protein)
chain: ASTKGPSVFPLAPCSRSTSGGTAALGCLVKDYFPEPVTVSWNSGALTSGVHTFPAVLQSSGLYSLSSVVTVPSSSLGTQTYTCNVNHKPSNTKVDKRVELKTPLGDTTHTCPRCPEPKSCDTPPPCPRCPEPKSCDTPPPCPRCPEPKSCDTPPPCPRCPAPELLGGPSVFLFPPKPKDTLMISRTPEVTCVVVDVSHEDPEVQFKWYVDGVEVHNAKTKPREEQYNSTFRVVSVLTVLHQDWLNGKEYKCKVSNKALPAPIEKTISKTKGQPREPQVYTLPPSREEMTKNQVSLTCLVKGFYPSDIAVEWESSGQPENNYNTTPPMLDSDGSFFLYSKLTVDKSRWQQGNIFSCSVMHEALHNRFTQKSLSLSPGK
B4: Lactotransferrin (protein)
chain: GRRRSVQWCAVSQPEATKCFQWQRNMRKVRGPPVSCIKRDSPIQCIQAIAENRADAVTLDGGFIYEAGLAPYKLRPVAAEVYGTERQPRTHYYAVAVVKKGGSFQLNELQGLKSCHTGLRRTAGWNVPIGTLRPFLNWTGPPEPIEAAVARFFSASCVPGADKGQFPNLCRLCAGTGENKCAFSSQEPYFSYSGAFKCLRDGAGDVAFIRESTVFEDLSDEAERDEYELLCPDNTRKPVDKFKDCHLARVPSHAVVARSVNGKEDAIWNLLRQAQEKFGKDKSPKFQLFGSPSGQKDLLFKDSAIGFSRVPPRIDSGLYLGSGYFTAIQNLRKSEEEVAARRARVVWCAVGEQELRKCNQWSGLSEGSVTCSSASTTEDCIALVLKGEADAMSLDGGYVYTAGKCGLVPVLAENYKSQQSSDPDPNCVDRPVEGYLAVAVVRRSDTSLTWNSVKGKKSCHTAVDRTAGWNIPMGLLFNQTGSCKFDEYFSQSCAPGSDPRSNLCALCIGDEQGENKCVPNSNERYYGYTGAFRCLAENAGDVAFVKDVTVLQNTDGNNNEAWAKDLKLADFALLCLDGKRKPVTEARSCHLAMAPNHAVVSRMDKVERLKQVLLHQQAKFGRNGSDCPDKFCLFQSETKNLLFNDNTECLARLHGKTTYEKYLGPQYVAGITNLKKCSTSPLLEACEFLRK

Tests used:
Experiment in all cases: Mass spectroscopy proteomics, semi-quantitative binding affinity of serum proteins (plaqueproteome, Table 2)
Conditions in all cases: higher number = stronger affinity
Tau plaque particles = test system: Tau plaque particles; parameters: species or system human
How it was run: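 Synthetic Tau-74 and Tau-275 peptides (1 mg/mL PBS, 37° C, 2 h) aggregated; 30 μg aggregates incubated with 50% serum/plasma 1 h at 37° C, stained with Thioflavin S, and plaque particles sorted by flow cytometry. Bound proteins trypsin-digested and identified by MS/MS against human UniProt.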

[1] = target: T1, Abeta-42 plaque particles (Homo sapiens, UniProt P05067)
T1 construct: Abeta 1-42
How it was run: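 AD patient serum or plasma (50% in PBS) was incubated with Abeta-42 aggregates (30 μg) for 1 h at 37 °C, then stained with Thioflavin S for 30 min. Labeled particles were FACS-sorted, trypsin/Lys-C digested overnight and analyzed by MS/MS. Sequest searched human UniProt; Scaffold/Protein Prophet validated the identifications.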

[2] = target: T2, alpha-synuclein plaque particles (Homo sapiens, UniProt P37840)
T2 construct: 140 amino acids polypeptide
How it was run: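 AD-subject plasma or serum (800 μL of 50%) mixed with 30 μg preformed alpha-synuclein aggregates for 1 h at 37 °C; Thioflavin S-positive particles isolated by flow sorting. After reduction, acrylamide alkylation and overnight tryptic digestion, serum proteins identified by MS/MS with Sequest and Scaffold.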

[3] = test system: Low density cholesterol (Chl small) plaque particles; parameters: species or system human
How it was run: (§1)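 Serum or plasma from atherosclerotic subjects, as 50% serum, was incubated with 30 μg cholesterol aggregates for 1 h at 37 °C. High- and low-density particles were then flow-sorted, trypsin-digested and analysed by MS/MS. Proteins were identified by Sequest search against human UniProt and validated with Protein Prophet.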

[4] = test system: High Density cholesterol (Chl Large) plaque particles; parameters: species or system human
How it was run: as §1

Molecule	Semi-quantitative analysis of proteins binding to different plaque particles: Tau (Tau plaque particles)	Semi-quantitative analysis of proteins binding to different plaque particles: Abeta-42 [1]	Semi-quantitative analysis of proteins binding to different plaque particles: Synuclein [2]	Semi-quantitative analysis of proteins binding to different plaque particles: Chl small [3]	Semi-quantitative analysis of proteins binding to different plaque particles: Chl Large [4]
B1	1	2	0	1	0
B2	2	0	2	1	1
B3	13	11	14	11	15
B4	0	5	0	0	0
